Measurements as given in patent US12059458B2, “Peptides and combination of peptides and scaffolds for use in immunotherapy against renal cell carcinoma (RCC) and other cancers” (Immatics Biotechnologies GmbH, priority 2015, dated 2024).

Key:
[1] = tested on: CD8+ T cells of healthy HLA-A*02 donors; assay: In vitro immunogenicity: T-cell priming with aAPCs loaded with peptide/MHC complexes and anti-CD28 antibody, pMHC multimer readout; type: cell-based, human; conditions: for donors: percentage of positive donors; for donors / wells: Table 10A; for wells: percentage of positive wells; for Wells positive [%]: Table 10B
Description: In order to obtain information regarding the immunogenicity of the TUMAPs of the present invention, the inventors performed investigations using an in vitro T-cell priming assay based on repeated stimulations of CD8+ T cells with artificial antigen presenting cells (aAPCs) loaded with peptide/MHC complexes and anti-CD28 antibody.
In order to perform in vitro stimulations by artificial antigen presenting cells loaded with peptide-MHC complex (pMHC) and anti-CD28 antibody, the inventors first isolated CD8+ T cells from fresh HLA-A*02 leukapheresis products via positive selection using CD8 microbeads (Miltenyi Biotec, Bergisch-Gladbach, Germany) of healthy donors obtained from the University clinics Mannheim, Germany, after informed consent.
PBMCs and isolated CD8+ lymphocytes were incubated in T-cell medium (TCM) until use consisting of RPMI-Glutamax (Invitrogen, Karlsruhe, Germany) supplemented with 10% heat inactivated human AB serum (PAN-Biotech, Aidenbach, Germany), 100 U/ml Penicillin/100 μg/ml Streptomycin (Cambrex, Cologne, Germany), 1 mM sodium pyruvate (CC Pro, Oberdorla, Germany), 20 μg/ml Gentamycin (Cambrex). 2.5 ng/ml IL-7 (PromoCell, Heidelberg, Germany) and 10 U/ml IL-2 (Novartis Pharma, Nümberg, Germany) were also added to the TCM at this step.
Generation of pMHC/anti-CD28 coated beads, T-cell stimulations and readout was performed in a highly defined in vitro system using four different pMHC molecules per stimulation condition and 8 different pMHC molecules per readout condition.
The purified co-stimulatory mouse IgG2a anti human CD28 Ab 9.3 (Jung et al., 1987) was chemically biotinylated using Sulfo-N-hydroxysuccinimidobiotin as recommended by the manufacturer (Perbio, Bonn, Germany). Beads used were 5.6 μm diameter streptavidin coated polystyrene particles (Bangs Laboratories, Illinois, USA).
pMHC used for positive and negative control stimulations were A*0201/MLA-001 (peptide […] (SEQ ID NO. 152) from modified Melan-A/MART-1) and A*0201/DDX5-001 ([…] from DDX5 (SEQ ID NO. 153)), respectively.
800.000 beads/200 μl were coated in 96-well plates in the presence of 4×12.5 ng different biotin-pMHC, washed and 600 ng biotin anti-CD28 were added subsequently in a volume of 200 μl. Stimulations were initiated in 96-well plates by co-incubating […] CD8+ T cells with 2×10^5 washed coated beads in 200 μl TCM supplemented with 5 ng/ml IL-12 (PromoCell) for 3 days at 37° C. Half of the medium was then exchanged by fresh TCM supplemented with 80 U/ml IL-2 and incubating was continued for 4 days at 37° C. This stimulation cycle was performed for a total of three times. For the pMHC multimer readout using 8 different pMHC molecules per condition, a two-dimensional combinatorial coding approach was used as previously described (Andersen et al., 2012) with minor modifications encompassing coupling to 5 different fluorochromes. Finally, multimeric analyses were performed by staining the cells with Live/dead near IR dye (Invitrogen, Karlsruhe, Germany), CD8-FITC antibody clone SK1 (BD, Heidelberg, Germany) and fluorescent pMHC multimers. For analysis, a BD LSRII SORP cytometer equipped with appropriate lasers and filters was used. Peptide specific cells were calculated as percentage of total CD8+ cells. Evaluation of multimeric analysis was done using the FlowJo software (Tree Star, Oregon, USA). In vitro priming of specific multimer+ CD8+ lymphocytes was detected by comparing to negative control stimulations.

HLA-A*02:01 = HLA-A*02:01 (Homo sapiens, UniProt P04439, D140Y/D185E/D98H/E176V/E277Q/G131W/G231S/I119V/I121R/I166T/I218V/L300P/L318F/N151K/N90K/P208A/P217A/Q86G/Q94H/R138H/R169H/T345S); assay: MHC binding assay (UV-ligand exchange, beta2m ELISA, peptide exchange yield); conditions: binding to HLA-A*02:01 ranged by peptide exchange yield, β2m ELISA
Description: Candidate peptides for T cell based therapies according to the present invention were further tested for their MHC binding capacity (affinity). The individual peptide-MHC complexes were produced by UV-ligand exchange, where a UV-sensitive peptide is cleaved upon UV-irradiation, and exchanged with the peptide of interest as analyzed. Only peptide candidates that can effectively bind and stabilize the peptide-receptive MHC molecules prevent dissociation of the MHC complexes. To determine the yield of the exchange reaction, an ELISA was performed based on the detection of the light chain (β2m) of stabilized MHC complexes. The assay was performed as generally described in Rodenko et al. (Rodenko et al., 2006).
96 well MAXISorp plates (NUNC) were coated over night with 2 ug/ml streptavidin in PBS at room temperature, washed 4× and blocked for 1 h at 37° C. in 2% BSA containing blocking buffer. Refolded HLA-A*02:01/MLA-001 monomers served as standards, covering the range of 15-500 ng/ml. Peptide-MHC monomers of the UV-exchange reaction were diluted 100 fold in blocking buffer. Samples were incubated for 1 h at 37° C., washed four times, incubated with 2 ug/ml HRP conjugated anti-β2m for 1h at 37° C., washed again and detected with TMB solution that is stopped with […]. Absorption was measured at 450 nm. Candidate peptides that show a high exchange yield (preferably higher than 50%, most preferred higher than 75%) are generally preferred for a generation and production of antibodies or fragments thereof, and/or T cell receptors or fragments thereof, as they show sufficient avidity to the MHC molecules and prevent dissociation of the MHC complexes.

Row | Substance | donors [1] | wells [1] | Wells positive [%] [1] | Peptide exchange (MHC class I binding score) (HLA-A*02:01)
1 | 143 (ALFVRLLALA; listed as Homo sapiens) [compound 143] | +++ (50%-69% = +++) | + (<20% = +) |  | 
2 | 29 (ILLDLEQAL; listed as Homo sapiens) [compound 29] |  |  | + (<20% = +) | +++ (≥50 = +++)
3 | 34 (ELNNQNFYL; listed as Homo sapiens) [compound 34] |  |  | ++ (20%-49% = ++) | +++ (≥50 = +++)
4 | 20 (AVANTTFTV; listed as Homo sapiens) [compound 20] |  |  | + (<20% = +) | ++ (≥20% = ++)
5 | 9 (ILLQKPDSV; listed as Homo sapiens) [compound 9] |  |  | + (<20% = +) | ++ (≥20% = ++)
6 | 6 (VLFELSKTV; listed as Homo sapiens) [compound 6] |  |  | + (<20% = +) | +++ (≥50 = +++)
7 | 98 (KIPPVSPSI; listed as Homo sapiens) [compound 98] |  |  | ++++ (> = 70% = ++++) | ++ (≥20% = ++)
8 | 123 (YVDPVITSI; listed as Homo sapiens) [compound 123] | ++++ (> = 70% = ++++) | + (<20% = +) |  | 
9 | 2 (ILWREVVTL; listed as Homo sapiens) [compound 2] |  |  | + (<20% = +) | +++ (≥50 = +++)
10 | 15 (ILIKHLVKV; listed as Homo sapiens) [compound 15] |  |  | + (<20% = +) | ++ (≥20% = ++)
11 | 3 (RLLGEVQAL; listed as Homo sapiens) [compound 3] |  |  | + (<20% = +) | ++ (≥20% = ++)
12 | 18 (YVLDLAAKV; listed as Homo sapiens) [compound 18] |  |  | ++ (20%-49% = ++) | +++ (≥50 = +++)
13 | 7 (FLLSLIDRL; listed as Homo sapiens) [compound 7] |  |  | + (<20% = +) | +++ (≥50 = +++)
14 | 22 (FLSPPLPSV; listed as Homo sapiens) [compound 22] |  |  | ++ (20%-49% = ++) | +++ (≥50 = +++)
15 | 94 (ILHHKVYDL; listed as Homo sapiens) [compound 94] |  |  | ++ (20%-49% = ++) | ++ (≥20% = ++)
16 | 95 (KLTDVGIATL; listed as Homo sapiens) [compound 95] |  |  | ++++ (> = 70% = ++++) | ++ (≥20% = ++)
17 | 30 (QLFYTKIFL; listed as Homo sapiens) [compound 30] |  |  |  | ++ (≥20% = ++)
18 | 68 (YVLTQPPSV; listed as Homo sapiens) [compound 68] |  |  |  | ++ (≥20% = ++)
19 | 44 (ALFSFVTAL; listed as Homo sapiens) [compound 44] |  |  |  | +++ (≥50 = +++)
20 | 106 (VLMDLKALL; listed as Homo sapiens) [compound 106] |  |  |  | +++ (≥50 = +++)
21 | 48 (VVASNIMEV; listed as Homo sapiens) [compound 48] |  |  |  | ++ (≥20% = ++)
22 | 80 (KLASMLETL; listed as Homo sapiens) [compound 80] |  |  |  | +++ (≥50 = +++)

Row | Substance | donors [1] | wells [1] | Wells positive [%] [1] | Peptide exchange (MHC class I binding score) (HLA-A*02:01)
23 | 36 (SLFGKKYIL; listed as Homo sapiens) [compound 36] |  |  | ++ (20%-49% = ++) | ++ (≥20% = ++)
24 | 13 (KIMAQILTV; listed as Homo sapiens) [compound 13] |  |  |  | +++ (≥50 = +++)
25 | 78 (ALLDTVVQA; listed as Homo sapiens) [compound 78] |  |  |  | ++ (≥20% = ++)
26 | 55 (YLALILPVL; listed as Homo sapiens) [compound 55] |  |  |  | ++ (≥20% = ++)
27 | 61 (SLMGILLRI; listed as Homo sapiens) [compound 61] |  |  |  | ++ (≥20% = ++)
28 | 37 (VLAPVILML; listed as Homo sapiens) [compound 37] |  |  |  | ++ (≥20% = ++)
29 | 92 (FLFRDILEL; listed as Homo sapiens) [compound 92] |  |  |  | +++ (≥50 = +++)
30 | 81 (SLLPALPKL; listed as Homo sapiens) [compound 81] |  |  |  | ++ (≥20% = ++)
31 | 47 (TLAEVRAVQEI; listed as Homo sapiens) [compound 47] |  |  |  | +++ (≥50 = +++)
32 | 127 (VLAPLFVYL; listed as Homo sapiens) [compound 127] | ++++ (> = 70% = ++++) | ++ (20%-49% = ++) |  | 
33 | 63 (GLIEDHFDVTV; listed as Homo sapiens) [compound 63] |  |  |  | ++ (≥20% = ++)
34 | 97 (TLISELVQA; listed as Homo sapiens) [compound 97] |  |  |  | ++ (≥20% = ++)
35 | 12 (ALDPSGNQLI; listed as Homo sapiens) [compound 12] |  |  |  | ++ (≥20% = ++)
36 | 39 (YLLNLNHLGL; listed as Homo sapiens) [compound 39] |  |  |  | +++ (≥50 = +++)
37 | 57 (SLQKEILYL; listed as Homo sapiens) [compound 57] |  |  |  | ++ (≥20% = ++)
38 | 17 (ILAQQVHAL; listed as Homo sapiens) [compound 17] |  |  |  | +++ (≥50 = +++)
39 | 99 (GLAPHLEQI; listed as Homo sapiens) [compound 99] |  |  |  | ++ (≥20% = ++)
40 | 27 (SLSDLLVSL; listed as Homo sapiens) [compound 27] |  |  |  | +++ (≥50 = +++)
41 | 40 (YIQEHLLQI; listed as Homo sapiens) [compound 40] |  |  |  | +++ (≥50 = +++)
42 | 65 (IIYGGSVTGA; listed as Homo sapiens) [compound 65] |  |  |  | ++ (≥20% = ++)
43 | 70 (SLTALRLLL; listed as Homo sapiens) [compound 70] |  |  |  | ++ (≥20% = ++)
44 | 62 (VLAGPAFLVQL; listed as Homo sapiens) [compound 62] |  |  |  | +++ (≥50 = +++)
